From the supplement of paper PMC12764529
± gives the half width of the 95% confidence interval.

Columns and labels:
[1] = folding stability dG unfold from trypsin proteolysis; higher = more stable
Protocol: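 Folding stability of de novo designed mini-proteins (<80 aa, no Cys; designed by TrROS, TrMRF, ProteinMPNN and the joint model) was measured by cDNA display proteolysis with trypsin and chymotrypsin. Each protease was used at 11 concentrations in a threefold dilution series plus a no-protease condition. K50 was inferred by Bayesian fitting of sequencing counts, and dG unfold was derived against a sequence-predicted unfolded-state K50 (Tsuboyama et al. method). Sequences shown include variable-length N-terminal GS-type padding (SAGGSAGG...) inside a display construct carrying a PA tag. Rows were kept only if the AF2 dimer inter-PAE was >15, to exclude likely homo-oligomers.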

[2] = folding stability dG unfold (combined trypsin and chymotrypsin); higher = more stable
In short: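 Designed mini-proteins (under 80 residues, no cysteine) in a PA-tagged cDNA display construct were digested with trypsin and chymotrypsin. Each protease was used at 11 concentrations (threefold dilutions) plus a no-protease condition, followed by sequencing. K50 was inferred by Bayesian fitting of sequencing counts, and unfolding free energy was derived against a sequence-predicted unfolded-state K50 and a shared folded-state K50, per protease or combined. Only designs with AlphaFold2 dimer inter-PAE above 15 were kept.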

Sequence | folding stability dG unfold [1] [kcal/mol] | folding stability dG unfold [2] [kcal/mol]
SAGGSAGGMSPDVEVVTVERVITTTEPVSPSLSPEYLKAYPNATKTTTTVTVTVVPKERFEELTSAGGSAGG [r6_831_JUSTAS] | -1.44 ± 0.43 | < -1
SAGGSAGGMSTISVTVPPNVSVEEVKERLKKENPNSKYEILSVSKGPGTVKAKIAYDPLPEELLSAGGSAGG [r6_623_JUSTAS] | -0.782 ± 0.22 | < -1
SAGGSAGGMTVPASSYEGVPLKVTVSRGDENVSAEEAEVTPLPDGTVVVKLPESLPEDTEVTLESAGGSAGG [r6_630_JUSTAS] | 0.703 ± 0.047 | -0.137 ± 0.13
SAGGSAGGSAGAAPDETTVTTTVTPSPGTTTVTTTTYTYAPPTNTVTSTTTTTTIPAGTASAGGSAGGSAGG [r11_237_JUSTAS] | 0.659 ± 0.057 | 0.127 ± 0.36
SAGGSAGGSAGFLVLVTDVKENPETGTFSIYLPSTGSVKTFPPNTKAVIPAAPDEPVFVAPESAGGSAGGSA [r18_329_TrMRF] | -0.314 ± 0.11 | < -1
SAGGSAGGSAGGDIEINVNANSPEEAKKFLGEFAQEGPAEIKIEVTPPPPPMPPNDPEYKSAGGSAGGSAGG [r7_261_TrROS] | -0.235 ± 0.096 | < -1
SAGGSAGGSAGGDPLERKPVKVLVLHPDKPIELEVDVGLSPEEIARPFAEKGYEVRFEGSAGGSAGGSAGGS [r10_540_TrMRF] | -1.17 ± 0.29 | -0.836 ± 0.39
SAGGSAGGSAGGDSSAPKPVIVEEGSVILEVKRDPKHGVITILSRNPLGGELITYEIPRSAGGSAGGSAGGS [r10_427_JUSTAS] | -0.563 ± 0.28 | < -1
SAGGSAGGSAGGEESRRVTVTETVYPVYPGVGIIRVTRTVTTPDATTTSTTLVFVPPGLPSAGGSAGGSAGG [r17_465_JUSTAS] | -0.433 ± 0.24 | < -1
SAGGSAGGSAGGEILIFDDNGKRIIVIPIPPENRYRVVVIHENTGIPEVKEAKLEEVLSSAGGSAGGSAGGS [r10_482_TrMRF] | 0.92 ± 0.055 | 0.104 ± 0.28
SAGGSAGGSAGGEPVSFLVKTPEDRWYPAVAIPETGEVLVEVPNEVRVLPADAEFEVSPASAGGSAGGSAGG [r7_434_TrMRF] | -0.0127 ± 0.11 | < -1
SAGGSAGGSAGGETVVEEDPAAGTTVVTYHEPLPTPSTRENVTTLTHDPSSSAATTTESSAGGSAGGSAGGS [r10_1041_JUSTAS] | -1.14 ± 0.27 | < -1
SAGGSAGGSAGGGENVTTEEKVLEVSYDPSKNSYSTLVKVTVKYPNGTTEEFEVVEEKLSAGGSAGGSAGGS [r10_1214_JUSTAS] | 0.334 ± 0.042 | -0.0354 ± 0.21
SAGGSAGGSAGGGKDVPVIAVPAGDEEAAEEFARRLVAELERRTGKPAGDIPVDFVEVESAGGSAGGSAGGS [r10_1216_TrMRF] | -0.243 ± 0.2 | -0.886 ± 0.84
SAGGSAGGSAGGGMKVVIPKEEAEKKGLTEAKLKEIEEKLKAKGIKVEIKLISSEEPELLSAGGSAGGSAGG [r7_972_JUSTAS] | 0.136 ± 0.12 | < -1
SAGGSAGGSAGGGMTVVPTLEFFPGTRLVVRPVVVRDAEGRVVEVEPEVTPLPPPTLSLLSAGGSAGGSAGG [r7_135_JUSTAS] | -0.353 ± 0.17 | < -1
SAGGSAGGSAGGGSSLVDPEGKPLPPRPEVVTTTGSYYSSLPGDGYYHLEEPVVEPVYPESAGGSAGGSAGG [r7_572_JUSTAS] | 0.339 ± 0.051 | -0.198 ± 0.14
SAGGSAGGSAGGKKTIWIPVKIEPVPDGVRIKFPDGNPIIIPPNHKVEHTPGWMRITLDSAGGSAGGSAGGS [r10_305_TrROS] | -0.293 ± 0.18 | -0.908 ± 0.86
SAGGSAGGSAGGKPKITITQEQHPNGMHRVNVRNPNGKPIGEVPFDSPQQLEEAKEFLLDSAGGSAGGSAGG [r7_476_TrROS] | -0.608 ± 0.3 | < -1
SAGGSAGGSAGGKVLVRFPTGEVPEVVEIDVPFEAGDPEKAKEIADELLAKGAEEVVLEDSAGGSAGGSAGG [r11_196_TrMRF] | 0.117 ± 0.056 | -0.328 ± 0.35
SAGGSAGGSAGGMEKKLTLVTTRTPEGGSETILVDDSDPEKVRAELEEAGWTITETTSSSAGGSAGGSAGGS [r10_882_JUSTAS] | -0.793 ± 0.95 | < -1
